Measured values taken from patent US20210246451, “APTAMER FOR ADAMTS5 AND USE FOR APTAMER FOR ADAMTS5” (RIBOMIC INC., published 2021).

T1: ADAMTS5 (UniProt Q9UNA0 Q9UNA0:262-622)
T1 sequence: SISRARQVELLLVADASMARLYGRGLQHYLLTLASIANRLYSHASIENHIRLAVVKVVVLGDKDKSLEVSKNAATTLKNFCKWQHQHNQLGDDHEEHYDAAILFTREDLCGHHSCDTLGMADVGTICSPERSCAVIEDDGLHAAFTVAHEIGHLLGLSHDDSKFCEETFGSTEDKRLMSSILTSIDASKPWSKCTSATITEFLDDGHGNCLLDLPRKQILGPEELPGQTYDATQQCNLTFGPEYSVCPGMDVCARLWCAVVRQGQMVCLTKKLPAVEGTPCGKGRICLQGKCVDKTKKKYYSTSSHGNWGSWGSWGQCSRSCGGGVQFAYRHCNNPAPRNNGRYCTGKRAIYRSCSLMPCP


Experiments:
Details in all cases: tags: R&D Systems
ADAMTS5 [1] = biological target: T1, ADAMTS5; assay: inhibition; method 1
Description: (§1) Whether an aptamer having the nucleotide sequence shown in SEQ ID NO: 1 inhibits the enzyme activity of ADAMTS5 was evaluated by the following method. As a substrate of ADAMTS5, the G1-IGD-G2 domain of aggrecan (manufactured by R&D systems) was used. ADAMTS5 specifically cleaves in between the 392nd glutamic acid and the 393rd alanine in the G1-IGD-G2 domain and produces two fragments. These fragments have faster electrophoretic mobility than uncleaved G1-IGD-G2. Thus, the enzyme activity of ADAMTS5 can be measured by quantifying the band intensity of G1-IGD-G2 by SDS-PAGE electrophoresis. The assay was performed in a solution A buffer with a reaction mixture volume of 10 μL. First, a mixture (10 μL) of a nucleic acid and ADAMTS5 was prepared and incubated at 25° C. for 15 min. To a substrate solution (5 μL) diluted with solution A was added a mixture (5 μL) of the nucleic acid and ADAMTS5 to start the enzyme reaction. The final concentration of ADAMTS5 in the reaction solution was 5 nM, and the final substrate concentration was 50 μg/mL. The reaction solution was incubated at 37° C. for 2 hr, 2 μL of solution D was added, and the mixture was heated at 95° C. for 2 min to stop the enzyme reaction of ADAMTS5. Solution D contains 0.25 M tris (pH 6.8), 10% SDS, 50% glycerol, 0.25% bromo phenolblue, and 20% 2-mercaptoethanol. The heat-treated reaction solution was electrophoresed by 7.5% SDS-PAGE and stained with SYPRO Orange (manufactured by Sigma-Aldrich). The staining was performed according to the manual of Sigma-Aldrich and detected using STORM840 manufactured by GE Healthcare. […] The amount of uncleaved substrate in each reaction solution was quantified from the band intensity and the standard curve. The substrate cleavage efficiency of ADAMTS5 under these reaction conditions was 80-100%. The inhibition rate of the test substance was calculated using the following equation.
The aptamers having the sequences shown in SEQ ID NOs: 28(l)-28(18) (SEQ ID NO: 28 lineage) and SEQ ID NOs: 29(1)-29(3) (SEQ ID NO: 29 lineage) were all produced by chemical synthesis.

ADAMTS5 [2] = biological target: T1, ADAMTS5; assay: SPR; RU ratio >=40%
ADAMTS5 [3] = biological target: T1, ADAMTS5; assay: inhibition; 10 nM
Description: as §1
The nucleic acids shown in SEQ ID NOs: 3(1)-3(16) were all produced by chemical synthesis. Whether these nucleic acids inhibit the enzyme activity of ADAMTS5 was determined by a method similar to that in Example 1.

ADAMTS5 [4] = biological target: T1, ADAMTS5; assay: inhibition; 10 nM; remark: listed apart in the source
Description: as §1
The aptamers having the sequences shown in SEQ ID NOs: 10(1)-10(8) and 11(1)-11(35), SEQ ID NO: 13-15 were all produced by chemical synthesis.

Row | Binder | activity (ADAMTS5 [1]) | binding result (ADAMTS5 [2]) | also measured
1 | CGUAGGGGCCUCCACAGCGUAAGCUUGGACUUAAACCACG (ssRNA, as SEQ 28 plus 2'-OMe at A4) [28(2)] | 68.7 % inhibition |  | 
2 | CGUAGGGGCCUCCACAGCGUAAGCUUGGACUUAAACCACG (ssRNA, as SEQ 28 plus 2'-F at G7) [28(7)] | 84.1 % inhibition |  | 
3 | CGUAGGGGCCUCCACAGCGUAAGCUUGGACUUAAACCACG (ssRNA, as SEQ 28 plus 2'-OMe at 4,20-22) [28(5)] | 77.3 % inhibition |  | 
4 | CGUAGGGGCCUCCACAGCGUAAGCUUGGACUUAAACCACG (ssRNA, as SEQ 28 plus 2'-F at A14) [28(9)] | 69.7 % inhibition |  | 
5 | CGUAGGGGCCUCCACAGCGUAAGCUUGGACUUAAACCACG (ssRNA, as SEQ 28 plus 2'-F at A29) [28(11)] | 42.6 % inhibition |  | 
6 | CGUAGGGGCCUCCACAGCGUAAGCUUGGACUUAAACCACG (ssRNA, as SEQ 28 plus 2'-F at A33) [28(12)] | 67.8 % inhibition |  | 
7 | CGUAGGGGCCUCCACAGCGUAAGCUUGGACUUAAACCACG (ssRNA, as SEQ 28 plus 2'-F at G28) [28(10)] | 76.6 % inhibition |  | 
8 | CGUAGGGGCCUCCACAGCAUUCGCUUGGACACAAACCACG (ssRNA, as SEQ 29 plus 2'-F at G7,G28 and 2'-OMe at A31; 3' idT) [29(2)] | 89.8 % inhibition |  | 
9 | CGUAGGGGCCUCCACAGCGUAAGCUUGGACUUAAACCACG (ssRNA, as SEQ 28 plus 2'-F at G8) [28(8)] | 71.1 % inhibition |  | 
10 | CGUAGGGGCCUCCACAGCAUUCGCUUGGACACAAACCACG (ssRNA, as SEQ 29 plus 2'-F at G7,G28; 3' idT) [29(3)] | 80.9 % inhibition |  | 
11 | CGUAGGGGCCUCCACAGCGUAAGCUUGGACUUAAACCACG (ssRNA, as SEQ 28 plus 2'-F at A4) [28(6)] | 76.8 % inhibition |  | 
12 | CGUAGGGGCCUCCACAGCGUAAGCUUGGACUUAAACCACG (ssRNA, as SEQ 28 plus 2'-OMe at 4,20-22,31; 3' idT) [28(13)] | 86.1 % inhibition |  | 
13 | CGUAGGGGCCUCCACAGCGUAAGCUUGGACUUAAACCACG (ssRNA, as SEQ 28 plus 2'-OMe at 4,20-22,31; 2'-F at G7,G28; 3' idT) [28(14)] | 90.6 % inhibition |  | 
14 | GGGUAUUGGGGCCUCCACAGUUGAAGCUUGGACUAAACCAAUCUCGA (ssRNA, 2'-F pyrimidines) [SEQ ID NO: 31] |  | binds | 
15 | GGGUAUUGGGGCCUCCACAGCCGAGGCUUGGACUAAACCAAUCUCGA (ssRNA, 2'-F pyrimidines) [SEQ ID NO: 33] |  | binds | 
16 | GGGUAUUGGGGCCUCCACAGAAAAAUCUUGGACUAAACCAAUCUCGA (ssRNA, 2'-F pyrimidines) [SEQ ID NO: 32] |  | binds | 
17 | GGGUAUUGGGGCCUCCACGUAACUAAACUGGACUAAACCAACUCGA (ssRNA, 2'-F pyrimidines) [SEQ ID NO: 39] |  | binds | 
18 | GGAUUGGGGCCUCCACAGCUGCUCAGCUUGGACUAAACCAAUCC (ssRNA, 2'-OMe at 1-7,17-28,36,38-44; 2'-F other pyrimidines) [3(8)] |  |  | activity (ADAMTS5 [3]): 52.8 % inhibition
19 | GGGUAUUGGGGCCUCCACAAUAGAUAAAUGGACUAAACCAACUCGA (ssRNA, 2'-F pyrimidines) [SEQ ID NO: 30] |  | binds | 
20 | GGGUAUUGGGGCCUCCACAGUAAAUUCUUGGACUAAACCAACUCGA (ssRNA, 2'-F pyrimidines) [SEQ ID NO: 37] |  | binds | 
21 | GGGUAUUGGGGCCUCCACGCUAGAAGGCUGGACUAAACCAACUCGA (ssRNA, 2'-F pyrimidines) [SEQ ID NO: 38] |  | binds | 

Row | Binder | activity (ADAMTS5 [1]) | binding result (ADAMTS5 [2]) | also measured
22 | GGGUAUUGGGGCCUCCACGCAAUGGUGCUGGACUAAACCAACUCGA (ssRNA, 2'-F pyrimidines) [SEQ ID NO: 40] |  | binds | 
23 | GGGUAUUGGGGCCUCCACAGAAAAAACUUGGACUAAACCAACUCGA (ssRNA, 2'-F pyrimidines) [SEQ ID NO: 34] |  | binds | 
24 | GGGUAUUGGGGCCUCCACAGUAAGCACUUGGACUAAACCAGCUCGA (ssRNA, 2'-F pyrimidines) [SEQ ID NO: 35] |  | binds | 
25 | GGGUAUUGGGGCCUCCACAGUUUAAACUUGGACUAAACCAACUCGA (ssRNA, 2'-F pyrimidines) [SEQ ID NO: 36] |  | binds | 
26 | GGGUAUUGGGGCCUCCACAGAACUUUCUUGGACUAAACCAACUCGA (ssRNA, 2'-F pyrimidines) [SEQ ID NO: 44] |  | binds | 
27 | GGGUAUUGGGGCCUCCACAGAAAAUUCUUGGACUAAACCAACUCGA (ssRNA, 2'-F pyrimidines) [SEQ ID NO: 43] |  | binds | 
28 | GGGUAUUGGGGCCUCCACAGAUAAUUCUUGGACUAAACCAACUCGA (ssRNA, 2'-F pyrimidines) [SEQ ID NO: 42] |  | binds | 
29 | GGGUAUUGGGGCCUCCACAGAAAAGUCUUGGACUAAACCAACUCGA (ssRNA, 2'-F pyrimidines) [SEQ ID NO: 45] |  | binds | 
30 | AUUGGGGCCUCCACAGCGCUCGCUUGGACUAAACCAAU (ssRNA, as 11(1) with PS between 5 and 6) [11(16)] |  |  | activity (ADAMTS5 [4]): 50.9 % inhibition
31 | AUUGGGGCCUCCACAGCGCUCGCUUGGACUAAACCAAU (ssRNA, as 11(1) with PS between 6 and 7) [11(17)] |  |  | activity (ADAMTS5 [4]): 70 % inhibition
32 | AUUGGGGCCUCCACAGCGCUCGCUUGGACUAAACCAAU (ssRNA, as 11(1) with PS between 14 and 15) [11(25)] |  |  | activity (ADAMTS5 [4]): 76.4 % inhibition
33 | AUUGGGGCCUCCACAGCGCUCGCUUGGACUAAACCAAU (ssRNA, as 11(1) with PS between 10 and 11) [11(21)] |  |  | activity (ADAMTS5 [4]): 80.3 % inhibition
34 | AUUGGGGCCUCCACAGCUUCGGCUUGGACUAAACCAAU (ssRNA, 2'-OMe at 1-5,15-26,32-38; 2'-F other pyrimidines) [SEQ ID NO: 14] |  |  | activity (ADAMTS5 [4]): 60.5 % inhibition
35 | GCUGGGGCCUCCACAGCGCUCGCUUGGACUAAACCAGC (ssRNA, 2'-OMe at 1-5,15-26,32-38; 2'-F other pyrimidines) [SEQ ID NO: 13] |  |  | activity (ADAMTS5 [4]): 58.4 % inhibition
36 | AUUGGGGCCUCCACAGCGCUCGCUUGGACUAAACCAAU (ssRNA, as 11(1) with PS between 30 and 31) [11(30)] |  |  | activity (ADAMTS5 [4]): 38.3 % inhibition
37 | AUUGGGGCCUCCACAGCGCUCGCUUGGACUAAACCAAU (ssRNA, as 11(1) with 5' 40 kDa branched PEG and 3' idT) [11(33)] |  |  | activity (ADAMTS5 [4]): 55.5 % inhibition
38 | AUUGGGGCCUCCACAGCGCUCGCUUGGACUAAACCAAU (ssRNA, as 11(1) with PS between 8-9, 9-10, 10-11, 14-15; 3' idT) [11(32)] |  |  | activity (ADAMTS5 [4]): 58.8 % inhibition
39 | AUUGGGGCCUCCACAGCGCUCGCUUGGACUAAACCAAU (ssRNA, as 11(1) with PS between 9 and 10) [11(20)] |  |  | activity (ADAMTS5 [4]): 74.7 % inhibition
40 | AUUGGGGCCUCCACAGCGCUCGCUUGGACUAAACCAAU (ssRNA, as 11(1) with PS between 7 and 8) [11(18)] |  |  | activity (ADAMTS5 [4]): 60.3 % inhibition
41 | AUUGGGGCCUCCACAGCGCUCGCUUGGACUAAACCAAU (ssRNA, as 11(1) with PS between 8 and 9) [11(19)] |  |  | activity (ADAMTS5 [4]): 81.1 % inhibition
42 | GGGUAUUGGGGCCUCCACAUGGAUACAUUGGACUAAACCAACUCGA (ssRNA, 2'-F pyrimidines) [SEQ ID NO: 41] |  | binds | 
